This is an account of results in patent EP1757701A1.

The target of experiment [1] is Y0317-570 Fab. Description: BIAcore, 1:1 Langmuir model: Herceptin dissociating from Y0317-570 Fab held on immobilized VEGF.
For experiment [2], the target named is Y0317-570 Fab. Nature of the experiment: BIAcore; estimated from the observed koff with an assumed kon.

pKd: −log10 of the molar value.

With “4D5-IgG, also known as Herceptin® (antibody)”, the dissociation half-life (t1/2) with Y0317-570 Fab [1] is 8.5 min. Also, the negative-log Kd (pKd) with Y0317-570 Fab [2] was 6.52 to 7.52.
